Tests used:
[1] = target: cytochrome c oxidase (complex IV) (rat (endogenous in rat liver mitoplasts)); settings: for Amax of the cytochrome c oxidase reaction, rat liver mitoplasts without cytochrome c: scale: μg atom of the oxygen/min per 1 mg of the protein
[2] = target: ubiquinol–cytochrome c reductase (complex III) (rat (endogenous in rat liver mitoplasts)); settings: for Amax of the succinate:cytochrome c reductase reaction, rat liver mitoplasts without cytochrome c: scale: μmol of the cyt c /min × mg of the protein

Q: “horse cytochrome c T78A/K79A/I81A/F82T/T89A (from UniProt P00004 1-105) (natural protein)” was tested. Which Amax(mut)/Amax(wt) of the cytochrome c oxidase reaction [1] did it give?
A: The Amax(mut)/Amax(wt) of the cytochrome c oxidase reaction was 92.3%.

Q: What about the Km of the cytochrome c oxidase reaction, rat liver mitoplasts without cytochrome c [1] of the same substance?
A: Its Km of the cytochrome c oxidase reaction, rat liver mitoplasts without cytochrome c is 5.31 μM of cyt c.

Q: What about the Amax of the cytochrome c oxidase reaction, rat liver mitoplasts without cytochrome c [1] of the same substance?
A: The Amax of the cytochrome c oxidase reaction, rat liver mitoplasts without cytochrome c was 0.677.

Q: And the Amax(mut)/Amax(wt) of the succinate:cytochrome c reductase reaction [2]?
A: Its Amax(mut)/Amax(wt) of the succinate:cytochrome c reductase reaction is 2.4%.

Q: What about the Km of the succinate:cytochrome c reductase reaction, rat liver mitoplasts without cytochrome c [2] of the same substance?
A: The Km of the succinate:cytochrome c reductase reaction, rat liver mitoplasts without cytochrome c was 5.08 μM of cyt c.

Q: And the Amax of the succinate:cytochrome c reductase reaction, rat liver mitoplasts without cytochrome c [2]?
A: The Amax of the succinate:cytochrome c reductase reaction, rat liver mitoplasts without cytochrome c was 0.003.

Q: With “horse cytochrome c T78N/K79Y/M80I/I81M/F82N (from UniProt P00004 1-105) (natural protein)” as the substance, how does the Amax(mut)/Amax(wt) of the cytochrome c oxidase reaction [1] read?
A: Its Amax(mut)/Amax(wt) of the cytochrome c oxidase reaction is 38.6%.

Q: What about the Km of the cytochrome c oxidase reaction, rat liver mitoplasts without cytochrome c [1] of the same substance?
A: The Km of the cytochrome c oxidase reaction, rat liver mitoplasts without cytochrome c was 4.96 μM of cyt c.

Q: And the Amax of the cytochrome c oxidase reaction, rat liver mitoplasts without cytochrome c [1]?
A: Its Amax of the cytochrome c oxidase reaction, rat liver mitoplasts without cytochrome c is 0.283.

Q: What about the Amax(mut)/Amax(wt) of the succinate:cytochrome c reductase reaction [2] of the same substance?
A: Its Amax(mut)/Amax(wt) of the succinate:cytochrome c reductase reaction is 6.5%.

Q: What about the Km of the succinate:cytochrome c reductase reaction, rat liver mitoplasts without cytochrome c [2] of the same substance?
A: The Km of the succinate:cytochrome c reductase reaction, rat liver mitoplasts without cytochrome c was 11 μM of cyt c.

Q: What about the Amax of the succinate:cytochrome c reductase reaction, rat liver mitoplasts without cytochrome c [2] of the same substance?
A: Its Amax of the succinate:cytochrome c reductase reaction, rat liver mitoplasts without cytochrome c is 0.008.

Q: Which Amax(mut)/Amax(wt) of the cytochrome c oxidase reaction [1] does the source give for “horse cytochrome c I75G/G77R/T78I (from UniProt P00004 1-105) (natural protein)” here?
A: Its Amax(mut)/Amax(wt) of the cytochrome c oxidase reaction is 86.7%.

Q: And the Km of the cytochrome c oxidase reaction, rat liver mitoplasts without cytochrome c [1]?
A: Its Km of the cytochrome c oxidase reaction, rat liver mitoplasts without cytochrome c is 6.47 μM of cyt c.

Q: And the Amax of the cytochrome c oxidase reaction, rat liver mitoplasts without cytochrome c [1]?
A: Its Amax of the cytochrome c oxidase reaction, rat liver mitoplasts without cytochrome c is 0.636.

Q: And the Amax(mut)/Amax(wt) of the succinate:cytochrome c reductase reaction [2]?
A: The Amax(mut)/Amax(wt) of the succinate:cytochrome c reductase reaction was 19.5%.

Q: And the Km of the succinate:cytochrome c reductase reaction, rat liver mitoplasts without cytochrome c [2]?
A: The Km of the succinate:cytochrome c reductase reaction, rat liver mitoplasts without cytochrome c was 20.7 μM of cyt c.

Q: And the Amax of the succinate:cytochrome c reductase reaction, rat liver mitoplasts without cytochrome c [2]?
A: The Amax of the succinate:cytochrome c reductase reaction, rat liver mitoplasts without cytochrome c was 0.024.

Q: For “horse cytochrome c I81L/F82S/A83S/G84A (from UniProt P00004 1-105) (natural protein)”, which Amax(mut)/Amax(wt) of the cytochrome c oxidase reaction [1] is on record?
A: Its Amax(mut)/Amax(wt) of the cytochrome c oxidase reaction is 92.1%.

Q: And the Km of the cytochrome c oxidase reaction, rat liver mitoplasts without cytochrome c [1]?
A: Its Km of the cytochrome c oxidase reaction, rat liver mitoplasts without cytochrome c is 5.77 μM of cyt c.

Q: What about the Amax of the cytochrome c oxidase reaction, rat liver mitoplasts without cytochrome c [1] of the same substance?
A: The Amax of the cytochrome c oxidase reaction, rat liver mitoplasts without cytochrome c was 0.675.

Q: And the Amax(mut)/Amax(wt) of the succinate:cytochrome c reductase reaction [2]?
A: The Amax(mut)/Amax(wt) of the succinate:cytochrome c reductase reaction was 44.7%.

Q: What about the Km of the succinate:cytochrome c reductase reaction, rat liver mitoplasts without cytochrome c [2] of the same substance?
A: The Km of the succinate:cytochrome c reductase reaction, rat liver mitoplasts without cytochrome c was 20.7 μM of cyt c.

Q: What about the Amax of the succinate:cytochrome c reductase reaction, rat liver mitoplasts without cytochrome c [2] of the same substance?
A: The Amax of the succinate:cytochrome c reductase reaction, rat liver mitoplasts without cytochrome c was 0.055.

Q: For “horse cytochrome c I81Y/A83Y/G84N (from UniProt P00004 1-105) (natural protein)”, which Amax(mut)/Amax(wt) of the cytochrome c oxidase reaction [1] is on record?
A: Its Amax(mut)/Amax(wt) of the cytochrome c oxidase reaction is 23.6%.

Q: What about the Km of the cytochrome c oxidase reaction, rat liver mitoplasts without cytochrome c [1] of the same substance?
A: The Km of the cytochrome c oxidase reaction, rat liver mitoplasts without cytochrome c was 5 μM of cyt c.

Q: What about the Amax of the cytochrome c oxidase reaction, rat liver mitoplasts without cytochrome c [1] of the same substance?
A: Its Amax of the cytochrome c oxidase reaction, rat liver mitoplasts without cytochrome c is 0.173.

Q: And the Amax(mut)/Amax(wt) of the succinate:cytochrome c reductase reaction [2]?
A: Its Amax(mut)/Amax(wt) of the succinate:cytochrome c reductase reaction is 13%.

Q: And the Km of the succinate:cytochrome c reductase reaction, rat liver mitoplasts without cytochrome c [2]?
A: The Km of the succinate:cytochrome c reductase reaction, rat liver mitoplasts without cytochrome c was 24.7 μM of cyt c.

Q: And the Amax of the succinate:cytochrome c reductase reaction, rat liver mitoplasts without cytochrome c [2]?
A: The Amax of the succinate:cytochrome c reductase reaction, rat liver mitoplasts without cytochrome c was 0.016.

Q: “horse cytochrome c K79V/I81L/F82R (from UniProt P00004 1-105) (natural protein)” was tested. Which Amax(mut)/Amax(wt) of the cytochrome c oxidase reaction [1] did it give?
A: The Amax(mut)/Amax(wt) of the cytochrome c oxidase reaction was 97.8%.

Q: What about the Km of the cytochrome c oxidase reaction, rat liver mitoplasts without cytochrome c [1] of the same substance?
A: Its Km of the cytochrome c oxidase reaction, rat liver mitoplasts without cytochrome c is 6.19 μM of cyt c.

Q: And the Amax of the cytochrome c oxidase reaction, rat liver mitoplasts without cytochrome c [1]?
A: Its Amax of the cytochrome c oxidase reaction, rat liver mitoplasts without cytochrome c is 0.717.

Q: What about the Amax(mut)/Amax(wt) of the succinate:cytochrome c reductase reaction [2] of the same substance?
A: The Amax(mut)/Amax(wt) of the succinate:cytochrome c reductase reaction was 8.1%.

Q: And the Km of the succinate:cytochrome c reductase reaction, rat liver mitoplasts without cytochrome c [2]?
A: The Km of the succinate:cytochrome c reductase reaction, rat liver mitoplasts without cytochrome c was 1.24 μM of cyt c.

Q: And the Amax of the succinate:cytochrome c reductase reaction, rat liver mitoplasts without cytochrome c [2]?
A: The Amax of the succinate:cytochrome c reductase reaction, rat liver mitoplasts without cytochrome c was 0.01.

Q: “horse cytochrome c T78S/K79P (from UniProt P00004 1-105) (natural protein)” was tested. Which Amax(mut)/Amax(wt) of the cytochrome c oxidase reaction [1] did it give?
A: Its Amax(mut)/Amax(wt) of the cytochrome c oxidase reaction is 47.5%.

Q: What about the Km of the cytochrome c oxidase reaction, rat liver mitoplasts without cytochrome c [1] of the same substance?
A: Its Km of the cytochrome c oxidase reaction, rat liver mitoplasts without cytochrome c is 5.04 μM of cyt c.

Q: And the Amax of the cytochrome c oxidase reaction, rat liver mitoplasts without cytochrome c [1]?
A: Its Amax of the cytochrome c oxidase reaction, rat liver mitoplasts without cytochrome c is 0.348.

Q: And the Amax(mut)/Amax(wt) of the succinate:cytochrome c reductase reaction [2]?
A: Its Amax(mut)/Amax(wt) of the succinate:cytochrome c reductase reaction is 3.2%.

Q: And the Km of the succinate:cytochrome c reductase reaction, rat liver mitoplasts without cytochrome c [2]?
A: Its Km of the succinate:cytochrome c reductase reaction, rat liver mitoplasts without cytochrome c is 17.4 μM of cyt c.

Q: What about the Amax of the succinate:cytochrome c reductase reaction, rat liver mitoplasts without cytochrome c [2] of the same substance?
A: Its Amax of the succinate:cytochrome c reductase reaction, rat liver mitoplasts without cytochrome c is 0.004.

Q: With “wild-type horse cytochrome c (from UniProt P00004 1-105) (natural protein)” as the substance, how does the Km of the cytochrome c oxidase reaction, rat liver mitoplasts without cytochrome c [1] read?
A: Its Km of the cytochrome c oxidase reaction, rat liver mitoplasts without cytochrome c is 5.4 μM of cyt c.

Q: What about the Amax of the cytochrome c oxidase reaction, rat liver mitoplasts without cytochrome c [1] of the same substance?
A: The Amax of the cytochrome c oxidase reaction, rat liver mitoplasts without cytochrome c was 0.733.

Q: What about the Km of the succinate:cytochrome c reductase reaction, rat liver mitoplasts without cytochrome c [2] of the same substance?
A: The Km of the succinate:cytochrome c reductase reaction, rat liver mitoplasts without cytochrome c was 20.9 μM of cyt c.

Q: What about the Amax of the succinate:cytochrome c reductase reaction, rat liver mitoplasts without cytochrome c [2] of the same substance?
A: Its Amax of the succinate:cytochrome c reductase reaction, rat liver mitoplasts without cytochrome c is 0.123.

Q: Which results are given for “horse cytochrome c T78A/K79A/I81A/F82T (from UniProt P00004 1-105) (natural protein)”?
A: Amax(mut)/Amax(wt) of the cytochrome c oxidase reaction [1]: 61.8%; Km of the cytochrome c oxidase reaction, rat liver mitoplasts without cytochrome c [1]: 5.31 μM of cyt c; Amax of the cytochrome c oxidase reaction, rat liver mitoplasts without cytochrome c [1]: 0.453; Amax(mut)/Amax(wt) of the succinate:cytochrome c reductase reaction [2]: 3.2%; Km of the succinate:cytochrome c reductase reaction, rat liver mitoplasts without cytochrome c [2]: 8.94 μM of cyt c; Amax of the succinate:cytochrome c reductase reaction, rat liver mitoplasts without cytochrome c [2]: 0.004
